Laboratory results taken from patent US20240368275A1 (ELPIS BIOPHARMACEUTICALS, published 2024).
Like-named read-outs stand apart in the source and are kept apart here.

Assays:
CD3 on Jurkat cells [1] = target: T1, CD3 on Jurkat cells (UniProt P07766 23-207, limits assumed); assay: cell-based or functional assay
[2] = target: T2, Nectin4 on Nectin4 positive cancer cell lines (T47D, HT1376, HCC1500, HT-29) (human, UniProt Q96NY8 32-510); assay: cell-based or functional assay
T2 sequence (looked up): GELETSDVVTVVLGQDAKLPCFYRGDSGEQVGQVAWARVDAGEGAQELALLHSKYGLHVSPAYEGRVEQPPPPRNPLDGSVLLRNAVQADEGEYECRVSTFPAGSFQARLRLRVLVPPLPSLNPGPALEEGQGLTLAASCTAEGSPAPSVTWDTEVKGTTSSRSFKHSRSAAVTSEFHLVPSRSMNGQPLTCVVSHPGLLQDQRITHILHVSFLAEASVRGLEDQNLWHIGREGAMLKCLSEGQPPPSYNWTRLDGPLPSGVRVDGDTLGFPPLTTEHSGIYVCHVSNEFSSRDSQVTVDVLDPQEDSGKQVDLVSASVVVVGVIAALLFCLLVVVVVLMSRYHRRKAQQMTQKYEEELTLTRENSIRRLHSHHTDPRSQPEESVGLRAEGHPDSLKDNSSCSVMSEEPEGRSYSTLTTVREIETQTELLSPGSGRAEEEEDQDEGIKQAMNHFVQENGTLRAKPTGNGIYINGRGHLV

[3] = target: T2, Nectin4 on Nectin4 positive cancer cell …; assay: cell-based or functional assay; remark: listed apart in the source
[4] = target: T2, Nectin4 on Nectin4 positive cancer cell …; assay: flow cytometry on T47D cells
[5] = target: T2, Nectin4 on Nectin4 positive cancer cell …; assay: flow cytometry on HT1376 cells
CD3 on Jurkat cells [6] = target: T1, CD3 on Jurkat cells; assay: flow cytometry on Jurkat cells
Method: (§1) Jurkat cells were plated at 100,000 cells/well in a 96-well plate with 50 μL of full media. Anti-Nectin4/CD3 antibodies were 3-fold serial titrated from 20 nM. 50 μL was added to the cells and incubated for 1 hours at room temperature with shaking. Samples were washed one time with flow buffer. […] Samples were washed once with flow buffer. Samples were stained with 100 uL Zombie Fixable Viability Dyes at 1:800 dilution per well and incubated in dark at room temperature for 30 mins. Samples were spun down at 1300 rpm for 5 minutes and washed once with 200 uL flow buffer. Reconstituted samples in 200 uL of flow buffer and read on Attune NxT cytometer. EC50 values for CD3 binding were calculated using Prism 8.1 software.

CD3 on Jurkat cells [7] = target: T1, CD3 on Jurkat cells; assay: flow cytometry on Jurkat cells; remark: listed apart in the source
Method: as §1
Similar methods of above mentioned were used to measure the binding activities of anti-Nectin4/CD3/IL-2 complexes to CHO/Nectin4 and Jurkat cells, respectively.

[8] = target: T3, full-length human Nectin4 with C-terminal flag and Myc tags on CHO cells (human, UniProt Q96NY8 32-510); assay: flow cytometry on CHO/Nectin4 cells
T3 construct: whole, on cells; also called Nectin4/CHO; CHO/Nectin4; not shown: C-terminal flag and Myc tags of pCMV6-Entry vector
T3 sequence (looked up): T2 sequence (looked up)
Method: Nectin4/CHO Nectin4 cells were plated at 100,000 cells/well in a 96-well plate in 50 μL of full media. Cells were rested 1 hour at 37° C. Anti-Nectin4/CD3 was 3-fold serial titrated from 50 nM. 50 μL was added to the cells and incubated for 1 hours with shaking. Samples were washed one time with flow buffer. […] Samples were washed once with flow buffer. Samples were stained with 100 uL Zombie Fixable Viability Dyes (1:800 dilution) per well and incubated in dark at room temperature for 30 mins. Samples were spun down at 1200 rpm for 5 minutes and washed once with 200 uL flow buffer. Reconstituted samples in 200 uL of flow buffer and read on Attune NxT cytometer. EC₅₀ values for Nectin4 Binding were determined using Prism software.

[9] = target: T4, human CD3E HIS tagged protein (human, UniProt P07766 23-126); assay: SPR Biacore T200, bispecific captured on Protein A chip, CD3E-HIS injected
T4 construct: not shown: HIS tag
Method: (§2) The assay was run with Biacore T200 control software version 2.0. For each cycle, 1 ug/mL of anti-hNectin4/CD3 antibody was captured for 60 seconds at flow rate of 10 ul/min on flow cell 2 in 1×HBSP buffer on Protein A sensor chip. 2-fold serial diluted CD3E-HIS or hNectin4-HIS tagged protein was injected onto both reference flow cell 1 and anti-Nectin4/CD3 bispecific captured flow cell 2 for 150 seconds at flow rate of 30 ul/mins followed by wash for 300 seconds. The flow cells were then regenerated with Glycine pH2 for 60 seconds at flow rate of 30 ul/mins. 8 concentration points from 100 nM-0 nM (CD3E-HIS) or 300 nM-0 nM (Nectin4-HIS) was assayed per anti-Nectin4 IgG in a 96 well plate. The kinetics of Anti-Nectin4/CD3 bispecific binding to CD3E and Nectin4 proteins was analyzed with Biacore T200 evaluation software version 3.0. The specific binding response unit was derived from subtraction of binding to reference flow cell 1 from antibody captured flow cell 2. Table 10 below listed the kinetics results. ND means not determined. NA means data not available.

[10] = target: T5, human Nectin4-HIS tagged recombinant protein (human, UniProt Q96NY8 32-349); assay: ELISA, coated Nectin4 HIS tagged protein, bispecific titrated, anti-Human HRP
T5 construct: also called hNectin4-HIS; Nectin4 HIS tagged protein; not shown: HIS tag
T5 sequence (looked up): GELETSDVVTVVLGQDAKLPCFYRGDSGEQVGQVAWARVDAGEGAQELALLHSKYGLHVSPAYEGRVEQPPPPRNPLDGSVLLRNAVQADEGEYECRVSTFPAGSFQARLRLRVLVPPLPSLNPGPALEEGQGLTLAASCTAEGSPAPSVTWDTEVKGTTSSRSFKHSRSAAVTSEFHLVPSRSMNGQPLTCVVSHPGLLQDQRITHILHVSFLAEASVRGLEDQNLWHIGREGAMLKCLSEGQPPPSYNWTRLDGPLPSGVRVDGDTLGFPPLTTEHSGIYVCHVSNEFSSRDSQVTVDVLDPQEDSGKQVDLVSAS
Method: (§3) An ELISA assay was developed to determine the EC₅₀ of anti-Nectin4/CD3 bispecific antibodies. Briefly, 384 well plate was immobilized with human CD3E or Nectin4 HIS tagged protein at final concentration of 2 ug/mL in 1×PBS in total volume of 25 uL per well. The plate was incubated overnight at 4° C. followed by blocking with 80 uL of superblock per well for 1 hour. Purified anti-Nectin4/CD3 was 3-fold serial titrated from 100 nM. 25 uL was added to human Nectin4/CD3 immobilized wells and incubated for 1 hour with shaking. The CD3E or Nectin4 binding was detected by adding 25 uL of anti-Human HRP diluted at 1:10000 in 1×PBST. In between each step, the plate was washed 3 times with […] in a plate washer. The plate was then developed with 20 ul of TMB substrate for 5 mins and stopped by adding 20 ul of 2N sulfuric acid. The plate was read at OD450 nm Biotek plate reader and then plotted in Prism 8.1 software to calculate EC50.

[11] = target: T5, human Nectin4-HIS tagged recombinant …; assay: SPR Biacore T200, bispecific captured on Protein A chip, hNectin4-HIS injected
Method: as §2

[12] = target: T4, human CD3E HIS tagged protein; assay: ELISA, coated human CD3E HIS tagged protein, bispecific titrated, anti-Human HRP
Method: as §3

T1 sequence (P07766 23-207 limits assumed): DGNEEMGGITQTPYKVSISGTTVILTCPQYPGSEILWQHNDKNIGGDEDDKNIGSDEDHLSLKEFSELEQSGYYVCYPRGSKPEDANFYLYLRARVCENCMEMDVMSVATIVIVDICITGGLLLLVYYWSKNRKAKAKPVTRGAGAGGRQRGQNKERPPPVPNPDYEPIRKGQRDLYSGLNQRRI
T4 sequence (P07766 23-126 limits assumed): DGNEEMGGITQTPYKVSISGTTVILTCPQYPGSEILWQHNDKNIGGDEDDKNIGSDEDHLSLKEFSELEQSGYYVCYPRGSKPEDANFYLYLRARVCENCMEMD

NFAT reporter EC50 (CD3 on Jurkat cells [1]): 0.4 pM | EC50 Values in CTL Assay Against PBMC [2]: 1.4 pM | EC50 Values in CTL Assay Against T47D Cancer Cells (PBMC) [3]: 4.7 pM | EC50 Values in CTL Assay Against T47D Cancer Cells (T cell) [3]: 6.4 pM | EC50 [4]: 0.044 nM | EC50 [5]: 0.14 nM | EC50 (CD3 on Jurkat cells [6]): 4.7 nM | EC50 (CD3 on Jurkat cells [7]): 4.37 nM | EC50 [8]: 0.146 nM | Kd [9]: 3.26 nM | koff [9]: 0.000739 s⁻¹ | kon [9]: 227000 M⁻¹ s⁻¹ | EC50 [10]: 0.21 nM | Kd [11]: 3.67 nM | koff [11]: 0.000472 s⁻¹ | kon [11]: 129000 M⁻¹ s⁻¹ | EC50 [12]: 0.011 nM
B1: EP458/EP378/EP289 anti-Nectin4/CD3 bispecific antibody (bispecific antibody)
heavy 1: EVQLVQSGAEVKKPGASVKVSCKASGYTFTGYYMHWVRQAPGQGLEWMGRINPNSGGTNYAQKFQGRVTMTRDTSISTAYMELSGLRSDDTAVYFCARVTYNIGWYIDYWGQGTLVTVSSASTKGPSVFPLAPSSKSTSGGTAALGCLVKDYFPEPVTVSWNSGALTSGVHTFPAVLQSSGLYSLSSVVTVPSSSLGTQTYICNVNHKPSNTKVDKKVEPKSCDGGGGSGGGGSEVQLVESGGGLVQPGGSLRLSCAASGFTFSTYAMNWVRQAPGKGLEWVGRIRSKYNNYATYYADSVKGRFTISRDDSKNTLYLQMNSLRAEDTAVYYCVRHGNFGDSYVSWFAYWGQGTLVTVSSGGGGSGGGGSGGGGSGGGGSQAVVTQEPSLTVSPGGTVTLTCGSSTGAVTTSNYANWVQQKPGKSPRGLIGGTNKRAPGVPARFSGSLLGGKAALTISGAQPEDEADYYCALWYSNHWVFGGGTKLTVLEPKSCDKTHTCPPCPAPEAAGGPSVFLFPPKPKDTLMISRTPEVTCVVVDVSHEDPEVKFNWYVDGVEVHNAKTKPREEQYNSTYRVVSVLTVLHQDWLNGKEYKCKVSNKALGAPIEKTISKAKGQPREPQVCTLPPSRDELTKNQVSLSCAVKGFYPSDIAVEWESNGQPENNYKTTPPVLDSDGSFKLVSKLTVDKSRWQQGNVFSCSVMHEALHNHYTQKSLSLSPGK
heavy 2: not shown
light: QAVVTQPPSVSVAPGKTATITCGGNNIGSKGVHWYQQKPGQAPVLVIYYDTDRPSGIPERLSGSNSGNTATLTISRVEAGDEADYYCQVWDSSSDHPVFGGGTKLTVLGQPKANPTVTLFPPSSEELQANKATLVCLISDFYPGAVTVAWKADGSPVKAGVETTKPSKQSNNKYAASSYLSLTPEQWKSHRSYSCQVTHEGSTVEKTVAPTECS
notes: Bivalent for Nectin4: B09 heavy chain with sp34 scFv between CH1 and hinge, hole (EP458); B09 heavy chain knob (EP378); light chain EP289 pairs with both; also called EP458/378/289
